Our source for the protein stability index values is the supplement of paper PMC10567573.

The data set in a line: protein stability index of a GFP-peptide fusion (GPS, HEK-293T) (PSI 1-6); higher = more stable.
The mark [1] stands for this setting: treatment: DMSO, c terminus: a fixed tail appended.
Setting [2] is: treatment: MLN4924 1 uM, 8 h, c terminus: a fixed tail appended.

± gives the standard deviation.
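Further: 24-mer peptide tiles fused after GFP, lentivirally expressed, FACS-sorted into six equal bins by GFP/DsRed ratio, decoded by Illumina sequencing, PSI is the read-weighted mean bin number.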

Turning to GPDHRLRLWRLFQTLDVNRDGGLC [SLC25A25], the protein stability index runs as follows: under setting [1], 2.29 ± 0.11; under setting [2], 2.23 ± 0.22.

Take GPMMKLKRHFVAQKYKKQIDHMYH [ACSBG2]: the protein stability index turned out to be 2.1 ± 0.14 under setting [1] and 2.42 ± 0.37 under setting [2].

Regarding GPPHARISQHGDPLLSNTFTETNN [EMID1], the protein stability index is, setting by setting: under setting [1], 4.31 ± 0.13; under setting [2], 4.748 ± 0.028.

Take GQPAPVSMVPPSPAMAASKALGSD [SNAP91]: the protein stability index is, setting by setting: under setting [1], 5.02 ± 0.32; under setting [2], 5.01 ± 0.18.

With GQQSDTAQLELYQLQVESNSSQLL [SCARA5], the protein stability index by setting is: under setting [1], 4.12 ± 0.13; under setting [2], 4.16 ± 0.15.

Consider GRGNFPTLEITLKDIVQTVRSRLE [TENT5C], for which the protein stability index runs as follows: under setting [1], 2.65 ± 0.36; under setting [2], 2.31 ± 0.2.

On to GRLIQLSRDGATGHVLLTDSEFSM [PPFIA4], for which the protein stability index under setting [1] was determined as 2.24 ± 0.22 and the protein stability index under setting [2] worked out at 2.17 ± 0.46.

For GRSSLTACSLPLCACLLGQKMLRH [PXN], the protein stability index under setting [1] amounted to 2.32 ± 0.28 and the protein stability index under setting [2] is 2.19 ± 0.16.

Take GRTPLIKLSPKKTWEGFIGGFFAT [CDS2]: the protein stability index runs as follows: under setting [1], 1.91 ± 0.24; under setting [2], 2.09 ± 0.55.

Take GSAPFLFLSLACARGSIVATYIFI [SPNS1]: the protein stability index by setting is: under setting [1], 3.15 ± 0.53; under setting [2], 2.9 ± 0.46.

Regarding GSAYLFVESSLDKVVLSDAYAHPQ [TRADD], the protein stability index under setting [1] came out at 2.22 ± 0.35 and the protein stability index under setting [2] was determined as 2.37 ± 0.54.

Turning to GSFNGSEKETMQFLNDRLANYLEK [KRT36], the protein stability index is, setting by setting: under setting [1], 3.38 ± 0.28; under setting [2], 3.58 ± 0.3.

As for GSKQYSAAIAFTLALFSHLVNHVN [SMG5], the protein stability index is, setting by setting: under setting [1], 3.39 ± 0.34; under setting [2], 3.14 ± 0.43.

On to GSYTVQSELGDYDPDECGSDYISE [EPB41L3], for which the protein stability index reads like this: under setting [1], 4.83 ± 0.48; under setting [2], 5.2 ± 0.22.

Regarding GTDLPLSEIPRGVRVALDYEAGQV [TRIM15], the protein stability index is 4.33 ± 0.25 under setting [1] and 4.46 ± 0.22 under setting [2].

As to GTDVTRCICGFTHDDGYMICCDKC [KMT2E], the protein stability index by setting is: under setting [1], 5 ± 0.2; under setting [2], 5.07 ± 0.12.

On to GTGRSAKEQVLRKGTENLQRAQAE [FCHSD1], for which the protein stability index turned out to be 5.09 ± 0.19 under setting [1] and 5.02 ± 0.4 under setting [2].

In the case of GTIFIRNVLLFKKQNPGKFCLLSC [RETREG3], the protein stability index by setting is: under setting [1], 2.7 ± 0.6; under setting [2], 2.89 ± 0.34.

In the case of GTLDCISMALTCTFNRWGTLLAVG [RBBP5], the protein stability index by setting is: under setting [1], 3.2 ± 0.3; under setting [2], 3.24 ± 0.59.

On to GVDWEHIRERPAAIPIEIKSIDDT [STK38L], for which the protein stability index by setting is: under setting [1], 4.68 ± 0.25; under setting [2], 4.99 ± 0.27.

Consider GWPHEDAAQFTDFLIPMLEMVPEK [SRPK2], for which the protein stability index was determined as 3.83 ± 0.26 under setting [1] and 4.01 ± 0.1 under setting [2].

Take GYSIKVFDFERSGLQHAPEPDAAD [SMAD6]: the protein stability index was 4.26 ± 0.37 under setting [1] and 4 ± 0.17 under setting [2].

As for HARLSDIWAKTPPITRKAAQLYTL [DHCR7], the protein stability index under setting [1] is 2.29 ± 0.22 and the protein stability index under setting [2] was 2.3 ± 0.29.

As to HASKCEFLANLHITALLNVSRRTS [DUSP5], the protein stability index under setting [1] is 2.2 ± 0.2 and the protein stability index under setting [2] turned out to be 2.33 ± 0.22.

As to HDQCKCENLIMFQNLANEEVRKLT [MATN2], the protein stability index runs as follows: under setting [1], 3.13 ± 0.25; under setting [2], 3.58 ± 0.28.

HEEEVKGLQAQIASSGLTVEVDAP [KRT18]: the protein stability index runs as follows: under setting [1], 5.51 ± 0.23; under setting [2], 5.45 ± 0.27.

Consider HEMVAHRHRQEVLCKEMVPLAEQT [ZSCAN9], for which the protein stability index runs as follows: under setting [1], 4.42 ± 0.2; under setting [2], 4.41 ± 0.19.

With HGAVTVGGTSVGSLGVPGSVGGVP [ZBTB22], the protein stability index is 4.02 ± 0.61 under setting [1] and 4.06 ± 0.37 under setting [2].

Turning to HGNLSEEAAKQMRSRGKVLKTKDG [CPOX], the protein stability index worked out at 5.22 ± 0.2 under setting [1] and 5.41 ± 0.2 under setting [2].

For HGPDLYPKFKKWCDDYFFIAHRGE [CPOX], the protein stability index stood at 2 ± 0.15 under setting [1] and 2.1 ± 0.27 under setting [2].

On to HGSGSSLVVIQQPSLDSRQRLDYE [SPRY1], for which the protein stability index is, setting by setting: under setting [1], 4.12 ± 0.28; under setting [2], 3.99 ± 0.31.

As for HHKTYDPTYSDFCQFRPPVRVNDG [VDR], the protein stability index runs as follows: under setting [1], 3.38 ± 0.29; under setting [2], 3.28 ± 0.16.

For the sequence HIDPEIQDGSPTTSRRPSGTGTGP [PDLIM4], the protein stability index turned out to be 5.26 ± 0.26 under setting [1] and 5.42 ± 0.26 under setting [2].

On to HIIHVWEETGSRFHNCLIQLYCEK [VPS39], for which the protein stability index turned out to be 2.44 ± 0.4 under setting [1] and 2.37 ± 0.36 under setting [2].

Take HNYKEMRQLMKVVNEMCPNITRIY [CPXM2]: the protein stability index under setting [1] came to 2.11 ± 0.37 and the protein stability index under setting [2] is 2.17 ± 0.31.

Take HPPSHWPLIKATVGLIRNLALCPA [CTNNB1]: the protein stability index runs as follows: under setting [1], 2.65 ± 0.53; under setting [2], 2.81 ± 0.88.

Regarding HPVPLSFEPVKSFFKGLVEAVEST [TRIM14], the protein stability index worked out at 2.6 ± 0.41 under setting [1] and 2.26 ± 0.42 under setting [2].

HPVTIGGKIVGSLCAIAGVLTIAL [KCNA3]: the protein stability index is, setting by setting: under setting [1], 2.6 ± 0.42; under setting [2], 2.05 ± 0.28.

On to HQLLGLFPSTSYNARLQAMWGQSL [TNXB], for which the protein stability index stood at 2.11 ± 0.35 under setting [1] and 2.08 ± 0.23 under setting [2].

Turning to HSYNVTQRRPRVLSCLHSVCEQCL [RNF208], the protein stability index reads like this: under setting [1], 2.87 ± 0.17; under setting [2], 3.16 ± 0.33.

In the case of HTETGEEVLRMCVAVKKKLQLYFW [VPS39], the protein stability index came out at 2.8 ± 0.85 under setting [1] and 2.82 ± 0.33 under setting [2].

As for HTVGVLFNNGAHMSLLPDKKTVHY [PLK2], the protein stability index by setting is: under setting [1], 2.65 ± 0.33; under setting [2], 2.66 ± 0.22.

Consider HVFSELWDLSEAWMQANYDPLSDS [ELOA2], for which the protein stability index runs as follows: under setting [1], 2.6 ± 0.32; under setting [2], 2.63 ± 0.31.

For the sequence IALFTARLHHPHKSVQHVVLQALF [PTPN9], the protein stability index by setting is: under setting [1], 2.59 ± 0.54; under setting [2], 3.13 ± 0.72.

For the sequence IATLRVALPSVMRFCCCVAVIYLG [MCOLN1], the protein stability index was determined as 3.29 ± 0.55 under setting [1] and 3.15 ± 0.21 under setting [2].

For the sequence ICTNLCEALQNFFSLACSLMGPSR [M1AP], the protein stability index stood at 2.33 ± 0.28 under setting [1] and 2.26 ± 0.1 under setting [2].

Regarding IDKVRFLEQQNQVLETKWELLQQL [KRT71], the protein stability index turned out to be 2.74 ± 0.1 under setting [1] and 2.73 ± 0.27 under setting [2].

As for IDREVDLMMRGVKHHNLEGLRKRI [IQUB], the protein stability index is, setting by setting: under setting [1], 3.29 ± 0.32; under setting [2], 3.62 ± 0.27.

Consider IEDDIRPEKQKRKPGLRRSPIKKV [MYBL2], for which the protein stability index is 5.01 ± 0.25 under setting [1] and 4.83 ± 0.23 under setting [2].

IEDLEVTCTWKLPTLAKFSPYLGQ [PRAME]: the protein stability index is, setting by setting: under setting [1], 2.62 ± 0.32; under setting [2], 2 ± 0.58.

As for IEDTPLVPVSFIFIFTFVKKKKIG [PCDHGA10], the protein stability index runs as follows: under setting [1], 2.29 ± 0.55; under setting [2], 3.12 ± 0.37.

Take IEELCQKREELCRQIQEEEDEKQR [SSNA1]: the protein stability index is 5.43 ± 0.1 under setting [1] and 5.52 ± 0.12 under setting [2].

As to IEPYITNFFNQVLMLGKTSISDLS [PDS5B], the protein stability index under setting [1] was determined as 3.01 ± 0.42 and the protein stability index under setting [2] amounted to 2.91 ± 0.45.

IETLIRDMLLSGSSFNWPYMAIQ [NR2F2]: the protein stability index worked out at 3.02 ± 1.2 (treatment: DMSO, c terminus: native) and 2.64 ± 0.41 (treatment: MLN4924 1 uM, 8 h, c terminus: native).

On to IFEETLNILIYETPRGPDPALLEA [KCTD13], for which the protein stability index was 2.47 ± 0.51 under setting [1] and 2.63 ± 0.28 under setting [2].

Take IFFMAAFAFSNGYLASLCMCFGPK [SLC29A1]: the protein stability index was 2.42 ± 0.38 under setting [1] and 2.52 ± 0.34 under setting [2].

As to IFSGAASLGYGTNVAATGISQYED [APBB1IP], the protein stability index is, setting by setting: under setting [1], 3.83 ± 0.24; under setting [2], 3.67 ± 0.16.

As to IHSCFSDVTCFLLPHPGLQVATSP [ATL3], the protein stability index under setting [1] was 2.34 ± 0.7 and the protein stability index under setting [2] came out at 2.29 ± 0.49.

In turn, IIHVVKDQLIGQGIIVKDARLNGS [TENT5D] showed a protein stability index under setting [1] of 2.2 ± 0.18 and a protein stability index under setting [2] of 2.25 ± 0.72.

Regarding IKDQGGAGEGLVRSANGFPYREDE [MAP2], the protein stability index was found to be 5.13 ± 0.3 under setting [1] and 5.18 ± 0.28 under setting [2].

Turning to IKSDEECRDLVDEAKNYLLLPQER [KLHL20], the protein stability index by setting is: under setting [1], 4.68 ± 0.14; under setting [2], 4.64 ± 0.13.

As for ILIASRDIAAGEELLYDYGDRSKA [KMT5A], the protein stability index is, setting by setting: under setting [1], 3.44 ± 0.45; under setting [2], 3.64 ± 0.65.

Turning to ILIIQGVLSDINLKKGESECQYYI [NET1], the protein stability index is, setting by setting: under setting [1], 2.73 ± 0.54; under setting [2], 2.67 ± 1.

On to ILIVDWDVHHGNGTQHMFEDDPSV [HDAC6], for which the protein stability index is 2.18 ± 0.23 under setting [1] and 2.39 ± 0.21 under setting [2].

On to ILKSQKERQCALRVFKARIYTNRY [FBXO39], for which the protein stability index is 2.41 ± 0.35 under setting [1] and 2.46 ± 0.29 under setting [2].

Regarding ILQDQEHIFAHRIYLATSSSKFYD [RHOBTB1], the protein stability index is, setting by setting: under setting [1], 2.15 ± 0.35; under setting [2], 2.4 ± 0.16.

In turn, ILQSPAFCEELESMIQEQFKKGKN [ADD1] returned a protein stability index under setting [1] of 3.53 ± 0.16 and a protein stability index under setting [2] of 3.76 ± 0.17.

On to ILSACSPYFRAMFTGELAESRQTE [KLHL20], for which the protein stability index under setting [1] was determined as 2.06 ± 0.086 and the protein stability index under setting [2] came to 2.48 ± 0.33.

With ILTGCKNMLFQQNKDGIGEICLWG [ACSBG2], the protein stability index was determined as 3.01 ± 1.4 under setting [1] and 2.92 ± 0.44 under setting [2].

For ILTRSWEEVSTLNAQIPELKSDLE [CD207], the protein stability index came out at 3.56 ± 0.28 under setting [1] and 3.78 ± 0.16 under setting [2].

For the sequence IREDRDRARLDSMVLLIMKLDQLD [DLC1], the protein stability index was 2.35 ± 0.45 under setting [1] and 2.18 ± 0.32 under setting [2].

Regarding IRESDPEQAPAPGEATAAPAPLCG [TBX6], the protein stability index turned out to be 5.32 ± 0.53 under setting [1] and 5.31 ± 0.2 under setting [2].
